Laboratory results published in patent US6120992, “Use of immobilized mismatch binding protein for detection of mutations and polymorphisms, and allele identification in a diseased human” (ValiGene Corporation).
Residue numbers refer to the chain shown, from its start.

Assays:
MutS [1] = biological target: T1, MutS (Escherichia coli, UniProt P23909 P23909:1-853); experiment: immobilized MutS; conditions: tags: immobilized on nitrocellulose, PVDF, nylon or magnetic beads, label: 5' biotin on first strand
T1 sequence: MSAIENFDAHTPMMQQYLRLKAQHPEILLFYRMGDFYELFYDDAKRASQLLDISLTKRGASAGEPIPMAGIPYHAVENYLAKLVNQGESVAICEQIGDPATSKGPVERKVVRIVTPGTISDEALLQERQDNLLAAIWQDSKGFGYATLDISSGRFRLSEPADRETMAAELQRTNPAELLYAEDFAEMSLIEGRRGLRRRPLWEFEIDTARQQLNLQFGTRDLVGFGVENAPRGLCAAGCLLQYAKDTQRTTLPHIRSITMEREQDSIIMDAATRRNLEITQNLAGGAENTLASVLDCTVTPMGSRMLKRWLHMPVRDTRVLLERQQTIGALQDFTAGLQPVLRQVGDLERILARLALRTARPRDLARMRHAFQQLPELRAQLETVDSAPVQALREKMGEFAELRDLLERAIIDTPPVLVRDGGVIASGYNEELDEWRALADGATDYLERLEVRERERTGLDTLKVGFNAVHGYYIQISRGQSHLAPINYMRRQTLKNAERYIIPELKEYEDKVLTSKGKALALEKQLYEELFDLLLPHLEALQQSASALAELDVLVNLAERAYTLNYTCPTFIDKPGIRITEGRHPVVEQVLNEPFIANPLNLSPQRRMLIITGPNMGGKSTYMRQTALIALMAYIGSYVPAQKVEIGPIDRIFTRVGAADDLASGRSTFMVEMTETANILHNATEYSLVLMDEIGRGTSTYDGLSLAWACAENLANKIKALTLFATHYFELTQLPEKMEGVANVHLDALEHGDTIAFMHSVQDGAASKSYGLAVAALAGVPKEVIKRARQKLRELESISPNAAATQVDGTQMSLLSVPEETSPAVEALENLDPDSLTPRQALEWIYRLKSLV
Description: (§1) Immobilization of MutS on Solid Supports and Biotin Detection Assay (a) Nitrocellulose A nitrocellulose sheet (0.45 μm, Schleicher and Schull, BA85) was pre-wet by floating in reaction buffer (20 mM Tris HCl, pH 7.6; 5 mM MgCl_2, 0.1 mM DTT, 0.01 mM EDTA). MutS (500 ng/well) in reaction buffer was bound to the nitrocellulose in a 48 well slot blotting apparatus (Hoefer Scientific Instruments) over 3 sheets of blotting paper (Schleicher and Schull GB002). Reaction buffer alone was added to "no MutS" wells. After 20 min. at room temperature, nitrocellulose was blocked with 200 μl/well of 3% horse radish peroxidase (HRP)-free bovine serum albumin (BSA). After 1 hour, excess blocking solution was pulled through with vacuum and DNA (1 ng and 10 ng) was added in 20 μl reaction buffer containing 3% BSA. After 30 min. at room temperature, wells were washed 5 times with 100 μl reaction buffer. The wash fluids were decanted rather than pulled through with vacuum.
(§2) The presence of biotin-labeled DNA bound on the nitrocellulose sheet was detected by visualizing the binding of streptavidin to biotin. 100 μl streptavidin-conjugated HRP (0.05 μg/ml in reaction buffer+BSA) was added to each well. After 20 min. at room temperature, any remaining solution was decanted and the wells washed 5 times with 100 μl reaction buffer as above.

MutS [2] = biological target: T1, MutS; experiment: immobilized MutS; conditions: tags: immobilized on nitrocellulose, PVDF, nylon or magnetic beads, label: biotin
Description: as §1
DNA was prepared as described in the Examples above. 500 ng *E. coli* MutS was bound to nitrocellulose as described above and the experiment carried out as in the previous Examples. Self-annealed single stranded triplet repeat sequences of CGG and CTG formed double-stranded mismatch-containing DNA duplexes which were recognized by immobilized MutS.

MutS [3] = biological target: T1, MutS; experiment: immobilized MutS; strong signal; conditions: tags: immobilized on nitrocellulose, PVDF, nylon or magnetic beads; label: 5' biotin on first strand; G//G mismatch
Description: as §1, §2

MutS [4] = biological target: T1, MutS; experiment: filter; soluble MutS, 1 or 10 ng DNA; 1.8-fold at 0.1 ng; conditions: tags: immobilized on nitrocellulose, PVDF, nylon or magnetic beads; label: 5' biotin on first strand; G//T mismatch
Description: The binding of ^32P-labeled heteroduplexes to MutS in solution was tested in a standard filter binding assay essentially as described by Jiricny, J. et al., Nucl. Acids Res. 16:7843–7853 (1988). The oligonucleotides were labeled as above and annealed with a 10-fold excess of unlabeled "complementary" oligonucleotides to yield a homoduplex and a heteroduplex containing a single G//T mismatch. For this assay, 500 ng of MutS in reaction buffer (20 µl) was incubated for 30 minutes at room temperature with the two types of duplexes. The mixture was spotted onto pre-wet nitrocellulose filters, which were then washed 5 times with 2 ml reaction buffer by vacuum filtration and dried at 80° C. for 15 minutes. Each filter was placed in 3 ml scintillation fluid and the radioactivity determined by scintillation counting. Background cpm (no MutS) were subtracted from the cpm bound by MutS. Means of duplicate or triplicate determinations are shown below.

MutS [5] = biological target: T1, MutS; experiment: immobilized MutS; C//T less well detected than T//C; conditions: tags: immobilized on nitrocellulose, PVDF, nylon or magnetic beads; label: 5' biotin on first strand; C//T mismatch
Description: as §1, §2

MutS [6] = biological target: T1, MutS; experiment: immobilized MutS, 1-10 ng; detected equally to G//T; conditions: tags: immobilized on nitrocellulose, PVDF, nylon or magnetic beads; label: 5' biotin on first strand; T//G mismatch
Description: as §1, §2

[7] = self-annealed duplex with mismatches

B1: T//T mismatch 30mer (dsDNA)
DNA 1: GCACCTGACTCCTGTGGAGAAGTCTGCCGT
DNA 2: ACGGCAGACTTCTCCTCAGGAGTCAGGTGC
binding result (MutS [1]; T//T mismatch): binds

CAGCAGCAGCAGCAGCAGCAGCAGCAGCAG (ssDNA) [(CAG)10]
binding result (MutS [2]): no binding

B2: G//G mismatch 30mer (dsDNA)
DNA 1: B1 DNA 1 with T15G
DNA 2: B1 DNA 2 with T16G
binding result (MutS [3]): binds

B3: G//T mismatch 30mer (dsDNA)
DNA 1: B1 DNA 1 with T15G
DNA 2: B1 DNA 2
binding signal (MutS [4]): 5.2 fold over G:C homoduplex

CGGCGGCGGCGGCGGCGGCGGCGGCGGCGG (structured_DNA) [(CGG)10]
binding result (MutS [2]; [7]): binds

CTGCTGCTGCTGCTGCTGCTGCTGCTGCTG (structured_DNA) [(CTG)10]
binding result (MutS [2]; [7]): binds

CCGCCGCCGCCGCCGCCGCCGCCGCCGCCG (ssDNA) [(CCG)10]
binding result (MutS [2]): no binding

B4: C//T mismatch 30mer (dsDNA)
DNA 1: B1 DNA 1 with T15C
DNA 2: B1 DNA 2
binding result (MutS [5]): binds

B5: A//A mismatch 30mer (dsDNA)
DNA 1: B1 DNA 1 with T15A
DNA 2: B1 DNA 2 with T16A
binding result (MutS [1]; A//A mismatch): binds

B6: G//A mismatch 30mer (dsDNA)
DNA 1: B1 DNA 1 with T15G
DNA 2: B1 DNA 2 with T16A
binding result (MutS [1]; G//A mismatch): binds

B7: T//G mismatch 30mer (dsDNA)
DNA 1: B1 DNA 1
DNA 2: B1 DNA 2 with T16G
binding result (MutS [6]): binds

B8: A//C mismatch 30mer (dsDNA)
DNA 1: B1 DNA 1 with T15A
DNA 2: B1 DNA 2 with T16C
binding result (MutS [1]; A//C mismatch): binds

B9: A//G mismatch 30mer (dsDNA)
DNA 1: B1 DNA 1 with T15A
DNA 2: B1 DNA 2 with T16G
binding result (MutS [1]; A//G mismatch): binds
